From patent publication US20180236024A1 (STC UNM, published 2018)

Legend:
TLR3 = molecular target: T1, TLR3 (UniProt O15455 24-904, limits assumed); experiment: co-IP with anti-Flag, GFP-IRGM and Flag-TLR3
T1 construct: also called Flag-TLR3 (Addgene Plasmid 13084)
T1 sequence (looked up): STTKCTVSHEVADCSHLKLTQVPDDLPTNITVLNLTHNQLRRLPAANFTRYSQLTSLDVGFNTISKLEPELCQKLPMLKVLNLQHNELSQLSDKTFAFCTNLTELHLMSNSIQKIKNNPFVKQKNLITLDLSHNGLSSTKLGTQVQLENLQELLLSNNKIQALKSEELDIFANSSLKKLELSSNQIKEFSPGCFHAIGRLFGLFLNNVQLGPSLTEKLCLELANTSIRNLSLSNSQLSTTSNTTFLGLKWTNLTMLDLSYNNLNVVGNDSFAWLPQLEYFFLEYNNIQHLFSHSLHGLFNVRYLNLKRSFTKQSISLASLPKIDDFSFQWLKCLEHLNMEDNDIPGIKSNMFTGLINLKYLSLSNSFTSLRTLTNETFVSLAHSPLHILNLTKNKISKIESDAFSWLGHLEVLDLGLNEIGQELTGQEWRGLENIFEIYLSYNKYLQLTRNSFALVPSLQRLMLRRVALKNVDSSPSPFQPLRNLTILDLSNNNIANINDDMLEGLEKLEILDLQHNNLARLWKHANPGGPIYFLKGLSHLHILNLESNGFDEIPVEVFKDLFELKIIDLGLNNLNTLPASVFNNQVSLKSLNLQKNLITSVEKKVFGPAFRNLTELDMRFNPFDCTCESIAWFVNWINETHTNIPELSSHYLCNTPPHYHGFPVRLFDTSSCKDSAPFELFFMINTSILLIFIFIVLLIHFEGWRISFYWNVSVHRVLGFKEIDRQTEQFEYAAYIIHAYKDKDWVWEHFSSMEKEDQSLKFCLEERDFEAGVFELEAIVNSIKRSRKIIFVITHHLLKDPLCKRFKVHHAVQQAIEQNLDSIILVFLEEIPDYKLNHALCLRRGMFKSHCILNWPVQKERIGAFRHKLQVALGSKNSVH

TLR4 = molecular target: T2, TLR4 (UniProt O00206 24-839, limits assumed); experiment: co-immunoprecipitation with anti-Flag (Flag-IRGM, tagged TLR4)
T2 construct: also called GFP-TLR4; YFP-TLR4 (Addgene Plasmid 13018)
T2 sequence (O00206 24-839 limits assumed): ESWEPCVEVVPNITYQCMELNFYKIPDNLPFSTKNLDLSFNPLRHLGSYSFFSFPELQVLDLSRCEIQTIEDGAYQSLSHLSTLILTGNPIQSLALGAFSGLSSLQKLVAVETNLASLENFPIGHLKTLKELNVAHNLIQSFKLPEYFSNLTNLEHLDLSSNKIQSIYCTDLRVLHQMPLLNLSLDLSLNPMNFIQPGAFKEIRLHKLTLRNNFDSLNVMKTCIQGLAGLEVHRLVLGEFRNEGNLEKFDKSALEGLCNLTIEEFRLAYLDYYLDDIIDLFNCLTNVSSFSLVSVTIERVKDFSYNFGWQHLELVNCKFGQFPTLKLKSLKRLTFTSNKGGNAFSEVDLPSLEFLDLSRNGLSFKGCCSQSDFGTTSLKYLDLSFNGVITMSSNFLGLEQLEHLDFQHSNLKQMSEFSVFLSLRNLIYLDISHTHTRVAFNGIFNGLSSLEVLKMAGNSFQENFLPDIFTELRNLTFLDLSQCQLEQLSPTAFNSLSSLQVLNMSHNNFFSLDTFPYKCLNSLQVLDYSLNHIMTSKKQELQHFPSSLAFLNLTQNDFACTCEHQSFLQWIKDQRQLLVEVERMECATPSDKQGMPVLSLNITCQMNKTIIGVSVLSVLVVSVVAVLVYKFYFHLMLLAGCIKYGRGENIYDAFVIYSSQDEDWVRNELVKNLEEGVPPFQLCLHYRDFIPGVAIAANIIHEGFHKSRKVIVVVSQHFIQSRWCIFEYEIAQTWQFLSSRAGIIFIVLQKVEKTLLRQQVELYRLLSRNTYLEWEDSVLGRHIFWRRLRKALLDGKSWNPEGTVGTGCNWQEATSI

Rubicon = molecular target: T3, Rubicon (UniProt Q92622 1-972, limits assumed); experiment: co-immunoprecipitation, HEK293T cells expressing GFP-IRGM
T3 sequence (looked up): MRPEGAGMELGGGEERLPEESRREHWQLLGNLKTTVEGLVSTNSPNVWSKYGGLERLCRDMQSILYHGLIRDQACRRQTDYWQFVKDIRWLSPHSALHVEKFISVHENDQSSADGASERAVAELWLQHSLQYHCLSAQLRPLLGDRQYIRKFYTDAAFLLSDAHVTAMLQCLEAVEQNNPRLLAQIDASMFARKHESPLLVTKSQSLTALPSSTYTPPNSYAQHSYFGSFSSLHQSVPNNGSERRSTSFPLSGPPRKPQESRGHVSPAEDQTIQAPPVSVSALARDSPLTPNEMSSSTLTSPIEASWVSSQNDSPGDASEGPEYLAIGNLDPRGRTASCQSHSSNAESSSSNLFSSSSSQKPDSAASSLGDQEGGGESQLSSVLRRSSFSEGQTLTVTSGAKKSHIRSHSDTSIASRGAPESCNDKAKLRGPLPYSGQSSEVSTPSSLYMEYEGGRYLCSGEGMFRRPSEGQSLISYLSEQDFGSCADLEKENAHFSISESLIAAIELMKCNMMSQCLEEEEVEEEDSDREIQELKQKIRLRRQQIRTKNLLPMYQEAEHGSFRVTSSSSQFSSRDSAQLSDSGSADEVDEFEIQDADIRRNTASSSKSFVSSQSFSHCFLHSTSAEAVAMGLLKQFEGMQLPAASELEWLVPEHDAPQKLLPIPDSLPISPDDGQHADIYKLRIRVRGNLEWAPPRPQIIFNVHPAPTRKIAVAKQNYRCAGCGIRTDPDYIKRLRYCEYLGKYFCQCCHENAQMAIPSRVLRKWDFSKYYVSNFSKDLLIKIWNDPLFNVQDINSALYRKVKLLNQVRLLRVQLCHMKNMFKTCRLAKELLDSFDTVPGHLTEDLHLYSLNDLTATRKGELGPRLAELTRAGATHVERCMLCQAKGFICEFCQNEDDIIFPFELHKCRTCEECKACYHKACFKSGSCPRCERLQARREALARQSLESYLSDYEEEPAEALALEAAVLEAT

RIG-I = molecular target: T4, RIG-I (UniProt O95786 1-925); experiment: co-IP with anti-GFP, GFP-IRGM and Flag-Rig-I
T4 construct: also called Flag-Rig-I
T4 sequence (looked up): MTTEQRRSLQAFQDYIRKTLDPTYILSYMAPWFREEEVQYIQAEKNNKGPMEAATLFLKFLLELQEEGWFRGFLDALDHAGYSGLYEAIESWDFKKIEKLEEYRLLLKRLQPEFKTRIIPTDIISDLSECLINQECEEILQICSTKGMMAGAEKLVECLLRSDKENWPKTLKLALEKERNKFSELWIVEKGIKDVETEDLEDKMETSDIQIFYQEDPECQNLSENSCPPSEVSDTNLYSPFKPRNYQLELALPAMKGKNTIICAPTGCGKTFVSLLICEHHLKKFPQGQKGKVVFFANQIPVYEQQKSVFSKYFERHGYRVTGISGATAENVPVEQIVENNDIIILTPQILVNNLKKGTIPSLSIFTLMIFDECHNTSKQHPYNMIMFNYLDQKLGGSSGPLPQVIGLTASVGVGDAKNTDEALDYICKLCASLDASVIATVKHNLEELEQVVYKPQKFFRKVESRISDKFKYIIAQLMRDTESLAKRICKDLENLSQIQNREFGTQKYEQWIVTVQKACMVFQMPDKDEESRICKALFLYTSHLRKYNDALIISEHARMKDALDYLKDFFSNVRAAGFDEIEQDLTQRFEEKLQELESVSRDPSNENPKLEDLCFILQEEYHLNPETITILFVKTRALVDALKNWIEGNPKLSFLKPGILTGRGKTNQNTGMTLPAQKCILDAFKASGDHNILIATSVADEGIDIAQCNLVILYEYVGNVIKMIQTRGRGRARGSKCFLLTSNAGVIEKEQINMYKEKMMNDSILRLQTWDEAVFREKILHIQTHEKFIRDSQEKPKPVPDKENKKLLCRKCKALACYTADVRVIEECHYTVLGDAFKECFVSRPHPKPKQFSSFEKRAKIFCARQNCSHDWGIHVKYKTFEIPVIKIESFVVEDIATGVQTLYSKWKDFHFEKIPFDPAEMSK

B1: IRGM (human IRGM, isoform d) (other, UniProt A1A4Y4-4 1-202, looked up)
chain: MEAMNVEKASADGNLPEVISNIKETLKIVSRTPVNITMAGDSGNGMSTFISALRNTGHEGKASPPTELVKATQRCASYFSSHFSNVVLWDLPGTGSATTTLENYLMEMQFNRYDFIMVASAQFSMNHVMLAKTAEDMGKKFYIVWTKLDMDLSTGALPEVQLLQIRENVLENLQKERLACHEKYLKSTPENSTRPRNINLCS
notes: Stood in cell lysates as GFP-, Flag- or V5-tagged protein or as the endogenous protein, depending on the experiment; Isoform d is said to be used in all experiments; also called GFP-IRGM; GFP-IRGMd
binding result (TLR3): binds | binding result (TLR4): no binding | binding result (Rubicon): no binding | binding result (RIG-I): binds
